How the values were obtained:
[1] = molecular target: T1, DMPC-lipidated apoE4 (DMPC:apoE=4:1) (human, UniProt P02649 19-317); experiment: ELISA; lipid-free or DMPC-lipidated apoE coated (50 ng protein/well)
T1 construct: Same protein as m2, in complex with dimyristoyl phosphatidylcholine (not covalent)
Procedure: (§1) Preparation of apoE and DMPC complex. Dimyristoyl phosphatidylcholine (DMPC) (Avanti Polar Lipids, Alabaster, Ala.) was used at a concentration of 20 mg/ml dissolved into phosphate-buffered saline (PBS). DMPC solution was sonicated for 6 min per cycle until the solution became clear and centrifuged at 14,000 rpm for 2 min to pellet debris. ApoE was then added to obtain various final stock concentrations and allowed to incubate at 23.7° C. overnight before use in enzyme-linked immunosorbent assay (ELISA) experiments.
(§2) ApoE ELISA. […] Wells were washed several times with wash buffer (PBS containing 0.1% bovine serum albumin (BSA)) and blocked for 1 h with 4% BSA in PBS. All incubations were performed at room temperature. […] Secondary antibodies against goat or mouse IgG labeled with horse radish peroxidase (HRP) diluted in blocking buffer were added to the wells after several washes and incubated for 1 h. […] substrate (Thermo-Pierce) was used to visualize the amount of bound secondary antibody at 450 nm on a SpectraMax190 plate reader (Molecular Devices) using Softmax Pro software for data collection.
(§3) All experiments were performed in triplicate. Values are mean±SD. OD, optical density.

[2] = molecular target: T2, DMPC-lipidated apoE3 (DMPC:apoE=4:1) (human, UniProt P02649 19-317); experiment: as above
T2 construct: Same protein as m3, in complex with dimyristoyl phosphatidylcholine (not covalent)
Procedure: as §1, §2, §3

[3] = molecular target: T3, recombinant human apolipoprotein E4, full length (human, UniProt P02649 19-317); experiment: inhibition ELISA; apoE preincubated with 3H1 IgG, added to Aβ1-42-coated wells
T3 construct: Recombinant protein in ELISA; expressed in transfected Neuro-2a or C6 cells for western blot and cell staining; also called apoE4; apoE4(1-299)
Procedure: ApoE and Aβ binding assay. Aβ₁₋₄₂ (Biopeptides) was used to coat the surface of a 96-well plate at 330 ng/well and ELISA was performed essentially as described above. […] Subsequent detection of apoE bound with Aβ was performed with polyclonal anti-apoE, as stated above.
FIGS. 6A and 6B. […] After washing, the binding of apoE to Aβ was detected with polyclonal anti-apoE in an ELISA. […] After incubation, the mixture was added to Aβ₁₋₄₂-coated wells, and the binding of apoE to Aβ was detected with polyclonal anti-apoE after washing. All experiments were performed in triplicate. Values are mean±SD. OD, optical density.

[4] = molecular target: T3, recombinant human apolipoprotein E4, …; experiment: ELISA; apoE coated (50 ng/well), 3H1 as primary antibody
Procedure: Secondary antibodies against goat or mouse IgG labeled with horse radish peroxidase (HRP) diluted in blocking buffer were added to the wells after several washes and incubated for 1 h. […] substrate (Thermo-Pierce) was used to visualize the amount of bound secondary antibody at 450 nm on a SpectraMax190 plate reader (Molecular Devices) using Softmax Pro software for data collection.
(§4) A, A schematic of different functional domains of human apoE. […] All experiments were performed in triplicate. Values are mean±SD. OD, optical density.

[5] = molecular target: T4, apoE(1-240) (human, UniProt P02649 19-258); experiment: western blot, transfected Neuro-2a cells
T4 construct: If 1-244 is right the range is 19-262
Procedure: (§5) Cell culture, transfection, and western blotting. Mouse neuroblastoma (Neuro-2a) and astrocytic (C6) cells (American Type Culture Collection, Manassas, Va.) maintained at 37° C. in MEM containing 10% fetal bovine serum (FBS) were transiently transfected with different apoE cDNA constructs using Lipofectamine 2000 (Invitrogen) (Huang et al., 2001). Neuro-2a cells expressing different forms of apoE were collected in a low-detergent lysis buffer, separated by sodium dodecyl sulfate-polyacrylamide gel electrophoresis (SDS-PAGE), and immunoblotted for apoE with polyclonal and monoclonal antibodies, as described (Huang et al., 2001).

[6] = molecular target: T5, apoE(1-260) (human, UniProt P02649 19-278); experiment: western blot, transfected Neuro-2a cells
T5 construct: Expressed in transiently transfected Neuro-2a cells; also called apoE4(1-260)
Procedure: as §5

[7] = molecular target: T6, green fluorescent protein-apoE(231-272) (human, UniProt P02649 249-290, not fully specified); experiment: western blot, transfected Neuro-2a cells
T6 construct: Expressed in transiently transfected Neuro-2a cells; not shown: green fluorescent protein tag
T6 chain: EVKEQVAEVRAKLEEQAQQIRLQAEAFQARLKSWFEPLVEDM
Procedure: as §5

[8] = molecular target: T7, N-terminal 22-kDa fragment of apoE3 (aa 1-191) (human, UniProt P02649 19-209); experiment: ELISA on coated fragment
T7 construct: Range 1-191 is in apoE (299-residue) numbering
Procedure: as §2, §4

[9] = molecular target: T8, N-terminal 22-kDa fragment of apoE4 (aa 1-191) (human, UniProt P02649 19-209); experiment: ELISA on coated fragment
T8 construct: Range 1-191 is in apoE (299-residue) numbering
T8 chain: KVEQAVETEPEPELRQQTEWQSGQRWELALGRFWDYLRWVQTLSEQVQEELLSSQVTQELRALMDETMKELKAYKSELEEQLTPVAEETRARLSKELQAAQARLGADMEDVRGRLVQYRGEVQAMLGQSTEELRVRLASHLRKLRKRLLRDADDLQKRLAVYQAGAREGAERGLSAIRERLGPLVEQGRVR
Procedure: as §2, §4

fold increase of reactivity against lipid-free apoE4 [1]: ~20 fold
fold increase of reactivity against lipid-free apoE3 [2]: ~120 fold
percent lower IC50 than for apoE3 [3]: ~90%
fold reactivity against apoE3 [4]: 9 fold
binding result [5]: no binding
binding result [6]: no binding
binding result [7]: no binding
binding result [8]: no binding
binding result [9]: no binding
B1: apoE-specific monoclonal antibody 3H1 (antibody, V domains shown)
VH: EVQLVESGGGLVKPGGSLKLSCAASGFTFSSYAMSWVRQTPEKRLEWVATISSGGSYTYYPDSVKGRFTISRDNAKNTLYLQMSSLRSEDTAMYYCARQFYYYGGSYDYFDYWGQGTTLTVS
VL: DIVLTQSPATLSVTPGDSVSLACRASQSISNNLHWYQQKSHESPRLLIKYAYQSISGIPSRFSGSGSGTDFTLSINSVETEDFGMYFCQQSNSWPLTFGVGTKLEIKR
notes: Mouse monoclonal IgG (detected with anti-mouse IgG; used as purified 3H1 IgG); also called 3H1 IgG; purified 3H1 IgG

Source: patent US20130017251A1 (J DAVID GLADSTONE INSTITUTES, published 2013)
